Data taken from patent US20230220042A1 (SHANGHAI JIAO TONG UNIVERSITY SCHOOL OF MEDICINE, published 2023).

T1: Biotin-FcγRIIB (human, UniProt P31994 43-217, limits assumed, biotin-labelled)
T1 construct: Bought, biotin-labelled; used at 1 µg/ml for staining and sorting; also called human FcγRIIB; CD32b
T1 sequence (looked up): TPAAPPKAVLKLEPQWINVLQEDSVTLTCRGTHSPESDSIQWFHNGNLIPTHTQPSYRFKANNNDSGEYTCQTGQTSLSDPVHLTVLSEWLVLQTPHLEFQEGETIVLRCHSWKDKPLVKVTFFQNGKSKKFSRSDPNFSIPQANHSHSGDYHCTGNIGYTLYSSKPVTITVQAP


Experiments:
Biotin-FcγRIIB [1] = target: T1, Biotin-FcγRIIB; assay: FACS sorting of displayed Fc library on biotin-FcγRIIB, NGS
Biotin-FcγRIIB [2] = target: T1, Biotin-FcγRIIB; assay: FACS sorting of displayed Fc library on biotin-FcγRIIB, NGS; reference P271G

Binder	Enrichment factor (after/before sorting) (Biotin-FcγRIIB [1])	Increased factor a (enrichment factor/wild-type enrichment factor) (Biotin-FcγRIIB [1])	Increased factor 2 c Site 1 (combined/point mutation) (Biotin-FcγRIIB [2])	Increased factor 2 c Site 2 (combined/point mutation) (Biotin-FcγRIIB [2])
human IgG2 anti-mouse CD40 surface displayed antibody, Fc mutant P271G/S298K (antibody, name in EU numbering, as m1; positions are Eu numbers; copies: 2 + 2) light chain (with the P2A rest): DTVLTQSPALAVSPGERVTISCRASDSVSTLMHWYQQKPGQQPKLLIYLASHLESGVPARFSGSGSGTDFTLTIDPVEADDTATYYCQQSWNDPWTFGGGTKLELKRTVAAPSVFIFPPSDEQLKSGTASVVCLLNNFYPREAKVQWKVDNALQSGNSQESVTEQDSKDSTYSLSSTLTLSKADYEKHKVYACEVTHQGLSSPVTKSFNRGECGSGATNFSLLKQAGDVEENPG heavy chain: EVQLVESDGGLVQPGRSLKLPCAASGFTFSDYYMAWVRQAPTKGLEWVASISYDGSSTYYRDSVKGRFTISRDNAKSTLYLQMDSLRSEDTATYYCGRHSSYFDYWGQGVMVTVSSASTKGPSVFPLAPCSRSTSESTAALGCLVKDYFPEPVTVSWNSGALTSGVHTFPAVLQSSGLYSLSSVVTVPSSNFGTQTYTCNVDHKPSNTKVDKTVERKCCVECPPCPAPPVAGPSVFLFPPKPKDTLMISRTPEVTCVVVDVSHEDGEVQFNWYVDGVEVHNAKTKPREEQFNKTFRVVSVLTVVHQDWLNGKEYKCKVSNKGLPAPIEKTISKTKGQPREPQVYTLPPSREEMTKNQVSLTCLVKGFYPSDIAVEWESNGQPENNYKTTPPMLDSDGSFFLYSKLTVDKSRWQQGNVFSCSVMHEALHNHYTQKSLSLSPGKLEPPPSTVSNMATVAVLVVLGAAIVTGAVVAFVMKMRRRNTGGKGGDYALAPGSQTSDLSLPDCKVMVHDPHSLA	10.2	13.6	2.9	
human IgG2 anti-mouse CD40 surface displayed antibody, Fc mutant P271G/S298L (antibody, name in EU numbering, as m1; positions are Eu numbers; copies: 2 + 2) light chain (with the P2A rest): DTVLTQSPALAVSPGERVTISCRASDSVSTLMHWYQQKPGQQPKLLIYLASHLESGVPARFSGSGSGTDFTLTIDPVEADDTATYYCQQSWNDPWTFGGGTKLELKRTVAAPSVFIFPPSDEQLKSGTASVVCLLNNFYPREAKVQWKVDNALQSGNSQESVTEQDSKDSTYSLSSTLTLSKADYEKHKVYACEVTHQGLSSPVTKSFNRGECGSGATNFSLLKQAGDVEENPG heavy chain: EVQLVESDGGLVQPGRSLKLPCAASGFTFSDYYMAWVRQAPTKGLEWVASISYDGSSTYYRDSVKGRFTISRDNAKSTLYLQMDSLRSEDTATYYCGRHSSYFDYWGQGVMVTVSSASTKGPSVFPLAPCSRSTSESTAALGCLVKDYFPEPVTVSWNSGALTSGVHTFPAVLQSSGLYSLSSVVTVPSSNFGTQTYTCNVDHKPSNTKVDKTVERKCCVECPPCPAPPVAGPSVFLFPPKPKDTLMISRTPEVTCVVVDVSHEDGEVQFNWYVDGVEVHNAKTKPREEQFNLTFRVVSVLTVVHQDWLNGKEYKCKVSNKGLPAPIEKTISKTKGQPREPQVYTLPPSREEMTKNQVSLTCLVKGFYPSDIAVEWESNGQPENNYKTTPPMLDSDGSFFLYSKLTVDKSRWQQGNVFSCSVMHEALHNHYTQKSLSLSPGKLEPPPSTVSNMATVAVLVVLGAAIVTGAVVAFVMKMRRRNTGGKGGDYALAPGSQTSDLSLPDCKVMVHDPHSLA	188	252	53.2	
human IgG2 anti-mouse CD40 surface displayed antibody, Fc mutant P271G/T299A (antibody, name in EU numbering, as m1; positions are Eu numbers; copies: 2 + 2) light chain (with the P2A rest): DTVLTQSPALAVSPGERVTISCRASDSVSTLMHWYQQKPGQQPKLLIYLASHLESGVPARFSGSGSGTDFTLTIDPVEADDTATYYCQQSWNDPWTFGGGTKLELKRTVAAPSVFIFPPSDEQLKSGTASVVCLLNNFYPREAKVQWKVDNALQSGNSQESVTEQDSKDSTYSLSSTLTLSKADYEKHKVYACEVTHQGLSSPVTKSFNRGECGSGATNFSLLKQAGDVEENPG heavy chain: EVQLVESDGGLVQPGRSLKLPCAASGFTFSDYYMAWVRQAPTKGLEWVASISYDGSSTYYRDSVKGRFTISRDNAKSTLYLQMDSLRSEDTATYYCGRHSSYFDYWGQGVMVTVSSASTKGPSVFPLAPCSRSTSESTAALGCLVKDYFPEPVTVSWNSGALTSGVHTFPAVLQSSGLYSLSSVVTVPSSNFGTQTYTCNVDHKPSNTKVDKTVERKCCVECPPCPAPPVAGPSVFLFPPKPKDTLMISRTPEVTCVVVDVSHEDGEVQFNWYVDGVEVHNAKTKPREEQFNSAFRVVSVLTVVHQDWLNGKEYKCKVSNKGLPAPIEKTISKTKGQPREPQVYTLPPSREEMTKNQVSLTCLVKGFYPSDIAVEWESNGQPENNYKTTPPMLDSDGSFFLYSKLTVDKSRWQQGNVFSCSVMHEALHNHYTQKSLSLSPGKLEPPPSTVSNMATVAVLVVLGAAIVTGAVVAFVMKMRRRNTGGKGGDYALAPGSQTSDLSLPDCKVMVHDPHSLA	6.28	8.39	1.8	
human IgG2 anti-mouse CD40 surface displayed antibody, Fc mutant P271G/T299M (antibody, name in EU numbering, as m1; positions are Eu numbers; copies: 2 + 2) light chain (with the P2A rest): DTVLTQSPALAVSPGERVTISCRASDSVSTLMHWYQQKPGQQPKLLIYLASHLESGVPARFSGSGSGTDFTLTIDPVEADDTATYYCQQSWNDPWTFGGGTKLELKRTVAAPSVFIFPPSDEQLKSGTASVVCLLNNFYPREAKVQWKVDNALQSGNSQESVTEQDSKDSTYSLSSTLTLSKADYEKHKVYACEVTHQGLSSPVTKSFNRGECGSGATNFSLLKQAGDVEENPG heavy chain: EVQLVESDGGLVQPGRSLKLPCAASGFTFSDYYMAWVRQAPTKGLEWVASISYDGSSTYYRDSVKGRFTISRDNAKSTLYLQMDSLRSEDTATYYCGRHSSYFDYWGQGVMVTVSSASTKGPSVFPLAPCSRSTSESTAALGCLVKDYFPEPVTVSWNSGALTSGVHTFPAVLQSSGLYSLSSVVTVPSSNFGTQTYTCNVDHKPSNTKVDKTVERKCCVECPPCPAPPVAGPSVFLFPPKPKDTLMISRTPEVTCVVVDVSHEDGEVQFNWYVDGVEVHNAKTKPREEQFNSMFRVVSVLTVVHQDWLNGKEYKCKVSNKGLPAPIEKTISKTKGQPREPQVYTLPPSREEMTKNQVSLTCLVKGFYPSDIAVEWESNGQPENNYKTTPPMLDSDGSFFLYSKLTVDKSRWQQGNVFSCSVMHEALHNHYTQKSLSLSPGKLEPPPSTVSNMATVAVLVVLGAAIVTGAVVAFVMKMRRRNTGGKGGDYALAPGSQTSDLSLPDCKVMVHDPHSLA	4.74	6.33	1.3	

The remaining lines, values ahead:

Enrichment factor (after/before sorting) (Biotin-FcγRIIB [1])	Increased factor a (enrichment factor/wild-type enrichment factor) (Biotin-FcγRIIB [1])	Increased factor 2 c Site 1 (combined/point mutation) (Biotin-FcγRIIB [2])	Increased factor 2 c Site 2 (combined/point mutation) (Biotin-FcγRIIB [2])	Binder
12	16	3.4		human IgG2 anti-mouse CD40 surface displayed antibody, Fc mutant P271G/T299S (antibody, name in EU numbering, as m1; positions are Eu numbers; copies: 2 + 2) light chain (with the P2A rest): DTVLTQSPALAVSPGERVTISCRASDSVSTLMHWYQQKPGQQPKLLIYLASHLESGVPARFSGSGSGTDFTLTIDPVEADDTATYYCQQSWNDPWTFGGGTKLELKRTVAAPSVFIFPPSDEQLKSGTASVVCLLNNFYPREAKVQWKVDNALQSGNSQESVTEQDSKDSTYSLSSTLTLSKADYEKHKVYACEVTHQGLSSPVTKSFNRGECGSGATNFSLLKQAGDVEENPG heavy chain: EVQLVESDGGLVQPGRSLKLPCAASGFTFSDYYMAWVRQAPTKGLEWVASISYDGSSTYYRDSVKGRFTISRDNAKSTLYLQMDSLRSEDTATYYCGRHSSYFDYWGQGVMVTVSSASTKGPSVFPLAPCSRSTSESTAALGCLVKDYFPEPVTVSWNSGALTSGVHTFPAVLQSSGLYSLSSVVTVPSSNFGTQTYTCNVDHKPSNTKVDKTVERKCCVECPPCPAPPVAGPSVFLFPPKPKDTLMISRTPEVTCVVVDVSHEDGEVQFNWYVDGVEVHNAKTKPREEQFNSSFRVVSVLTVVHQDWLNGKEYKCKVSNKGLPAPIEKTISKTKGQPREPQVYTLPPSREEMTKNQVSLTCLVKGFYPSDIAVEWESNGQPENNYKTTPPMLDSDGSFFLYSKLTVDKSRWQQGNVFSCSVMHEALHNHYTQKSLSLSPGKLEPPPSTVSNMATVAVLVVLGAAIVTGAVVAFVMKMRRRNTGGKGGDYALAPGSQTSDLSLPDCKVMVHDPHSLA
9.23	12.3	2.6		human IgG2 anti-mouse CD40 surface displayed antibody, Fc mutant P271G/T299W (antibody, name in EU numbering, as m1; positions are Eu numbers; copies: 2 + 2) light chain (with the P2A rest): DTVLTQSPALAVSPGERVTISCRASDSVSTLMHWYQQKPGQQPKLLIYLASHLESGVPARFSGSGSGTDFTLTIDPVEADDTATYYCQQSWNDPWTFGGGTKLELKRTVAAPSVFIFPPSDEQLKSGTASVVCLLNNFYPREAKVQWKVDNALQSGNSQESVTEQDSKDSTYSLSSTLTLSKADYEKHKVYACEVTHQGLSSPVTKSFNRGECGSGATNFSLLKQAGDVEENPG heavy chain: EVQLVESDGGLVQPGRSLKLPCAASGFTFSDYYMAWVRQAPTKGLEWVASISYDGSSTYYRDSVKGRFTISRDNAKSTLYLQMDSLRSEDTATYYCGRHSSYFDYWGQGVMVTVSSASTKGPSVFPLAPCSRSTSESTAALGCLVKDYFPEPVTVSWNSGALTSGVHTFPAVLQSSGLYSLSSVVTVPSSNFGTQTYTCNVDHKPSNTKVDKTVERKCCVECPPCPAPPVAGPSVFLFPPKPKDTLMISRTPEVTCVVVDVSHEDGEVQFNWYVDGVEVHNAKTKPREEQFNSWFRVVSVLTVVHQDWLNGKEYKCKVSNKGLPAPIEKTISKTKGQPREPQVYTLPPSREEMTKNQVSLTCLVKGFYPSDIAVEWESNGQPENNYKTTPPMLDSDGSFFLYSKLTVDKSRWQQGNVFSCSVMHEALHNHYTQKSLSLSPGKLEPPPSTVSNMATVAVLVVLGAAIVTGAVVAFVMKMRRRNTGGKGGDYALAPGSQTSDLSLPDCKVMVHDPHSLA
5.27	9.19		1.9	human IgG2 anti-mouse CD40 surface displayed antibody, Fc mutant S267A/P271G (antibody, name in EU numbering, as m1; positions are Eu numbers; copies: 2 + 2) light chain (with the P2A rest): DTVLTQSPALAVSPGERVTISCRASDSVSTLMHWYQQKPGQQPKLLIYLASHLESGVPARFSGSGSGTDFTLTIDPVEADDTATYYCQQSWNDPWTFGGGTKLELKRTVAAPSVFIFPPSDEQLKSGTASVVCLLNNFYPREAKVQWKVDNALQSGNSQESVTEQDSKDSTYSLSSTLTLSKADYEKHKVYACEVTHQGLSSPVTKSFNRGECGSGATNFSLLKQAGDVEENPG heavy chain: EVQLVESDGGLVQPGRSLKLPCAASGFTFSDYYMAWVRQAPTKGLEWVASISYDGSSTYYRDSVKGRFTISRDNAKSTLYLQMDSLRSEDTATYYCGRHSSYFDYWGQGVMVTVSSASTKGPSVFPLAPCSRSTSESTAALGCLVKDYFPEPVTVSWNSGALTSGVHTFPAVLQSSGLYSLSSVVTVPSSNFGTQTYTCNVDHKPSNTKVDKTVERKCCVECPPCPAPPVAGPSVFLFPPKPKDTLMISRTPEVTCVVVDVAHEDGEVQFNWYVDGVEVHNAKTKPREEQFNSTFRVVSVLTVVHQDWLNGKEYKCKVSNKGLPAPIEKTISKTKGQPREPQVYTLPPSREEMTKNQVSLTCLVKGFYPSDIAVEWESNGQPENNYKTTPPMLDSDGSFFLYSKLTVDKSRWQQGNVFSCSVMHEALHNHYTQKSLSLSPGKLEPPPSTVSNMATVAVLVVLGAAIVTGAVVAFVMKMRRRNTGGKGGDYALAPGSQTSDLSLPDCKVMVHDPHSLA
